# Assay results from patent CN113754772A (SUNSHINE GUOJIAN PHARMACEUTICAL SHANGHAI CO LTD, dated 2021).
# Legend:
# [1] = molecular target: T1, PDL1-ECD-hFc蛋白 (human, UniProt Q9NZQ7 19-238); test: bridging ELISA: PDL1-ECD-hFc coated, antibody, then KDR-ECD-His, detected with HRP-anti-His
# T1 construct: extracellular domain; PDL1-ECD-His with its C-terminal tag exchanged for hFc; not shown: hFc tag in place of the His tag
# [2] = molecular target: T2, KDR-ECD-His蛋白 (human, UniProt P35968 20-764); test: ELISA, KDR-ECD-His coated, HRP-anti-Fab
# T2 construct: extracellular domain; Made in HEK-293E cells with an added N-terminal signal peptide (not part of the mature protein); also called KDR抗原
# T2 sequence (P35968 other isoform, or with tags, fused parts or gaps): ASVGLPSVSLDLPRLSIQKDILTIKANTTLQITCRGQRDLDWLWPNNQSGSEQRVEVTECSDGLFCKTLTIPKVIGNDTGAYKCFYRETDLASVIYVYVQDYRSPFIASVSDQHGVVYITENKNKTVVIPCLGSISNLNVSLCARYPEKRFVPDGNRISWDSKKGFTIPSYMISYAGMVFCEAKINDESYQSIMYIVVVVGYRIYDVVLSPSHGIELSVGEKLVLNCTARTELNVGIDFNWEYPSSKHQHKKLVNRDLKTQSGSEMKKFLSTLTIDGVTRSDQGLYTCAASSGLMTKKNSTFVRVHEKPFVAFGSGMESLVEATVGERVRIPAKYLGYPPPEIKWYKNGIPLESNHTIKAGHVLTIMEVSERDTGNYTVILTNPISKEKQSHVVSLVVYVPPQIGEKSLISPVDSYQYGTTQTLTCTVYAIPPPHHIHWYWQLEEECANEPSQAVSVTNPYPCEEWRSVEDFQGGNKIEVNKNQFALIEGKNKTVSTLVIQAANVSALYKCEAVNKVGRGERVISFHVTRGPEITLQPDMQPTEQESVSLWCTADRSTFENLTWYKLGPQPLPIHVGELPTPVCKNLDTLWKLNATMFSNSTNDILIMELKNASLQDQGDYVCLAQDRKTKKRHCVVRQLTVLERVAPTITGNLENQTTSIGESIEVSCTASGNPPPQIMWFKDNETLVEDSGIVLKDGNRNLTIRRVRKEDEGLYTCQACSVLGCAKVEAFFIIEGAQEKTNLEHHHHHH
# [3] = molecular target: KDR on KDR/NFAT-RE HEK293 cells (UniProt P35968 20-1356); test: cell-based or functional assay
# Sequence of KDR on KDR/NFAT-RE HEK293 cells (P35968 20-1356): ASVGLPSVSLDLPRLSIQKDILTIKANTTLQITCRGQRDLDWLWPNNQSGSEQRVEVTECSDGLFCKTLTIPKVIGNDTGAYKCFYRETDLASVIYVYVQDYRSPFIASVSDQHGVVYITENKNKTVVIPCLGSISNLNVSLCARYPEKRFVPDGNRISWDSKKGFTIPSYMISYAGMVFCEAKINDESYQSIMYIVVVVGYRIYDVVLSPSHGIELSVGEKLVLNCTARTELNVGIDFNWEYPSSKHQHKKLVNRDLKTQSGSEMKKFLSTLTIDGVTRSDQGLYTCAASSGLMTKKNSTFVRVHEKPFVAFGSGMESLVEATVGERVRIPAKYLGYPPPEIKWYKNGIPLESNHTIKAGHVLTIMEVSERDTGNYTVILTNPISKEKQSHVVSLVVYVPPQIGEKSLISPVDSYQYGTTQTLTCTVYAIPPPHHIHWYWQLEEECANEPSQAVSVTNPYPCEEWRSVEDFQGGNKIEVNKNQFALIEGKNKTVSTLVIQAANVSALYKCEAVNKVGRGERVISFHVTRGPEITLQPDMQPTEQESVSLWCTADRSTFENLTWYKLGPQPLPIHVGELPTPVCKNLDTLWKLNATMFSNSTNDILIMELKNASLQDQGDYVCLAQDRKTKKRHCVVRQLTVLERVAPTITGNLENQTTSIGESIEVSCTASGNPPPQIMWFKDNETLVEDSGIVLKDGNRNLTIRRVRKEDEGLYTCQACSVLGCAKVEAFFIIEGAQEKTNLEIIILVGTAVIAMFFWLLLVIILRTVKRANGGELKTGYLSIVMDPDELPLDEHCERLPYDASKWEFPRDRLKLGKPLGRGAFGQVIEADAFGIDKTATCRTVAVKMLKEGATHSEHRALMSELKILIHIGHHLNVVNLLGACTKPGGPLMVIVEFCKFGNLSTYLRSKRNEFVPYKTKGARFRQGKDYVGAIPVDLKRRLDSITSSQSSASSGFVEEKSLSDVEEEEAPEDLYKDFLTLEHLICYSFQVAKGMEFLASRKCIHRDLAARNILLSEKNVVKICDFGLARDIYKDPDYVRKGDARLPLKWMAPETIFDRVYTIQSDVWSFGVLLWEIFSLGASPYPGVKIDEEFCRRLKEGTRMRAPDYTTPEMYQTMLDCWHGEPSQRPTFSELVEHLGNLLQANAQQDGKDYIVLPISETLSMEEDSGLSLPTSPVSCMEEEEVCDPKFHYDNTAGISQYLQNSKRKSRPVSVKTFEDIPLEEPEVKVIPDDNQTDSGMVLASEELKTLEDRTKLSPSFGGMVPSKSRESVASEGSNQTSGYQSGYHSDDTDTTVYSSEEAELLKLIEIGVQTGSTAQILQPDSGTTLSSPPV
# [4] = molecular target: T3, PDL1-ECD-His蛋白 (human, UniProt Q9NZQ7 19-238); test: ELISA, PDL1-ECD-His coated, HRP goat anti-human Fc
# T3 construct: extracellular domain; Made in HEK-293E cells with an added N-terminal signal peptide (not part of the mature protein); also called PD-L1抗原
# T3 sequence (Q9NZQ7 other isoform, or with tags, fused parts or gaps): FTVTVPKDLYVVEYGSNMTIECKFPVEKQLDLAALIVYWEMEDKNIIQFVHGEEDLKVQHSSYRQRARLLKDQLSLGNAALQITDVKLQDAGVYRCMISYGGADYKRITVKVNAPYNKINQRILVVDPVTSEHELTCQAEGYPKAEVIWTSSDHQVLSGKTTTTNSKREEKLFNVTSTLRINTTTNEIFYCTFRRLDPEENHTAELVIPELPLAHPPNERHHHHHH
# [5] = molecular target: T4, PD-L1 on N87-PDL1 cells (UniProt Q9NZQ7 19-290, limits assumed); test: flow cytometry on N87-PDL1 cells, FITC goat anti-human Fc
# T4 construct: whole, on cells; also called N87-PDL1细胞
# T4 sequence (Q9NZQ7 19-290 limits assumed): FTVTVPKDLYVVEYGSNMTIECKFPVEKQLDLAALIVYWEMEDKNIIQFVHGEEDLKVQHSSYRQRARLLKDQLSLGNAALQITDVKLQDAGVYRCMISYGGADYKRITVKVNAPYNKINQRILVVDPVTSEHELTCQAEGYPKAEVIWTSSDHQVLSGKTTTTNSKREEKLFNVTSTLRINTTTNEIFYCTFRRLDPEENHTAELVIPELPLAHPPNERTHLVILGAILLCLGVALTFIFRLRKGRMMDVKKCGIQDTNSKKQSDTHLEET
# [6] = molecular target: T1, PDL1-ECD-hFc蛋白; test: bridging ELISA: PDL1-ECD-hFc coated, antibody titrated, then 1 μg/ml KDR-ECD-His, HRP-anti-His (binding of both antigens at once)
# [7] = molecular target: PD-L1 on PD-L1 aAPC/CHO-K1 cells (UniProt Q9NZQ7 19-290, limits assumed); test: cell-based or functional assay
# Sequence of PD-L1 on PD-L1 aAPC/CHO-K1 cells (Q9NZQ7 19-290 limits assumed): as above
# [8] = molecular target: T2, KDR-ECD-His蛋白; test: bridging ELISA: PDL1-ECD-hFc coated, antibody, then KDR-ECD-His, detected with HRP-anti-His
# T1 sequence (Q9NZQ7 19-238): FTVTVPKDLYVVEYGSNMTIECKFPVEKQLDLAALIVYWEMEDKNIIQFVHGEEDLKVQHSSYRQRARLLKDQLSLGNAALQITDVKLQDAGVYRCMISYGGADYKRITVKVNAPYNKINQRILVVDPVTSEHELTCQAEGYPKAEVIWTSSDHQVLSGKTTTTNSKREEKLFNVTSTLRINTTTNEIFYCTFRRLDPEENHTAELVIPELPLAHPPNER
Binder,binding result [1],EC50 [2],"IC50 (luminescence, VEGF Bioassay) [3]",EC50 [4],EC50 [5],EC50 [6],"IC50 (luminescence, PD-1/PD-L1 Blockade Bioassay) [7]",binding result [8]
"anti-PDL1×KDR BsAb3 (bispecific antibody, human IgG1, lambda, also called 抗PDL1×KDR双抗) heavy: not shown light: VLTQPPSVSGAPGQRVTISCTGSHSNFGAGTDVHWYQHLPGTAPKLLIHGDSNRPSGVPDRFSGSKSGTSASLAITGLQAEDEADYYCQSYDYGLRGWVFGGGTKLTVLGQPKAAPSVTLFPPSSEELQANKATLVCLISDFYPGAVTVAWKADSSPVKAGVETTTPSKQSNNKYAASSYLSLTPEQWKSHRSYSCQVTHEGSTVEKTVAPTECS",–,0.41 nM,4.35 nM,0.15 nM,0.21 nM,0.2 nM,0.3 nM,–
"anti-PDL1×KDR BsAb1 (bispecific antibody, also called 抗PDL1×KDR双抗; not shown: CH1-CH2-CH3 heavy chain constant region) heavy (part 1 of 2): QVQLQQSGGGLVKPSQSLSLTCTVSGFSLTSYGVHWVRQPPGKGLEWIGLIWSGGGTDYNPSLKSRLTISRDTSKNQVSFKISSLTAADTAVYYCARQLGLRAMDYWGQGTSVTVSS heavy (part 2 of 2): GGGGSGGGGSGGGGSVLTQPPSVSGAPGQRVTISCTGSHSNFGAGTDVHWYQHLPGTAPKLLIHGDSNRPSGVPDRFSGSKSGTSASLAITGLQAEDEADYYCQSYDYGLRGWVFGGGTKLTVLGGGGSGGGGSGGGGSGGGGSEVQLVESGGGLVKPGGSLRLSCAASGFTFSSYSMNWVRQAPGKGLEWVSSISSSSSYIYYADSVKGRFTISRDNAKNSLYLQMNSLRAEDTAVYYCARVTDAFDIWGQGTLVTVSS light: EIVLTQSPDFLSVTPKEKVTITCRASQSIGTTIHWYQQKPDQSPKLLIKYASQSFSGVPSRFSGSGSGTDFTLTINSVEAEDAATYYCQQSNSWPLTFGAGTKLEIKRTVAAPSVFIFPPSDEQLKSGTASVVCLLNNFYPREAKVQWKVDNALQSGNSQESVTEQDSKDSTYSLSSTLTLSKADYEKHKVYACEVTHQGLSSPVTKSFNRGEC",–,0.23 nM,13.5 nM,0.13 nM,0.15 nM,0.13 nM,0.27 nM,–
"anti-PDL1×KDR BsAb2 (bispecific antibody, also called 抗PDL1×KDR双抗; not shown: CH1-CH2-CH3 heavy chain constant region) heavy (part 1 of 2): QVQLQQSGGGLVKPSQSLSLTCTVSGFSLTSYGVHWVRQPPGKGLEWIGLIWSGGGTDYNPSLKSRLTISRDTSKNQVSFKISSLTAADTAVYYCARQLGLRAMDYWGQGTSVTVSS heavy (part 2 of 2): GGGGSGGGGSGGGGSEVQLVESGGGLVKPGGSLRLSCAASGFTFSSYSMNWVRQAPGKGLEWVSSISSSSSYIYYADSVKGRFTISRDNAKNSLYLQMNSLRAEDTAVYYCARVTDAFDIWGQGTLVTVSSGGGGSGGGGSGGGGSGGGGSVLTQPPSVSGAPGQRVTISCTGSHSNFGAGTDVHWYQHLPGTAPKLLIHGDSNRPSGVPDRFSGSKSGTSASLAITGLQAEDEADYYCQSYDYGLRGWVFGGGTKLTVL light: EIVLTQSPDFLSVTPKEKVTITCRASQSIGTTIHWYQQKPDQSPKLLIKYASQSFSGVPSRFSGSGSGTDFTLTINSVEAEDAATYYCQQSNSWPLTFGAGTKLEIKRTVAAPSVFIFPPSDEQLKSGTASVVCLLNNFYPREAKVQWKVDNALQSGNSQESVTEQDSKDSTYSLSSTLTLSKADYEKHKVYACEVTHQGLSSPVTKSFNRGEC",–,0.23 nM,6.09 nM,0.14 nM,0.15 nM,0.14 nM,0.22 nM,–

# The remaining lines, values ahead:
binding result [1],EC50 [2],"IC50 (luminescence, VEGF Bioassay) [3]",EC50 [4],EC50 [5],EC50 [6],"IC50 (luminescence, PD-1/PD-L1 Blockade Bioassay) [7]",binding result [8],Binder
no binding (tested: 12nM),0.26 nM,3.1 nM,–,–,–,–,–,"抗KDR单抗 (anti-human KDR monoclonal antibody) (antibody, V domains shown, Whole monoclonal antibody; CDRs from clone 3A10 of Dan Lu et al. 2003, frameworks mutated in house; also called 抗人KDR单抗; anti-KDR mAb) VH: EVQLVESGGGLVKPGGSLRLSCAASGFTFSSYSMNWVRQAPGKGLEWVSSISSSSSYIYYADSVKGRFTISRDNAKNSLYLQMNSLRAEDTAVYYCARVTDAFDIWGQGTLVTVSS VL: VLTQPPSVSGAPGQRVTISCTGSHSNFGAGTDVHWYQHLPGTAPKLLIHGDSNRPSGVPDRFSGSKSGTSASLAITGLQAEDEADYYCQSYDYGLRGWVFGGGTKLTVL"
–,–,–,0.13 nM,0.13 nM,–,0.23 nM,no binding (tested: 12nM),"抗PD-L1单抗 (anti-human PD-L1 monoclonal antibody M8) (antibody, V domains shown, also called 抗人PD-L1单抗M8; anti-PDL1 mAb) VH: QVQLQQSGGGLVKPSQSLSLTCTVSGFSLTSYGVHWVRQPPGKGLEWIGLIWSGGGTDYNPSLKSRLTISRDTSKNQVSFKISSLTAADTAVYYCARQLGLRAMDYWGQGTSVTVSS VL: EIVLTQSPDFLSVTPKEKVTITCRASQSIGTTIHWYQQKPDQSPKLLIKYASQSFSGVPSRFSGSGSGTDFTLTINSVEAEDAATYYCQQSNSWPLTFGAGTKLEIK"
